In publication PMC6480404 (Molecular cell, 2018):

Target: Streptococcus pyogenes Cas9 (Streptococcus pyogenes, UniProt Q99ZW2 1-1368)
Assay: native gel or EMSA

B1: AcrIIA4 (natural protein, Listeria monocytogenes prophage, UniProt A0A247D711 1-87, looked up)
chain: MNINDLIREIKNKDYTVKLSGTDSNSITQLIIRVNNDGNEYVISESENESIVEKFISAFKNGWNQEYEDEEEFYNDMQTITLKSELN
  Kd: 0.078 µM
